The values below come from patent US6638941B1, “Conformationallly constrained peptidomimetics as β-turn templates and modulators of SH3 domains” (OSI Pharmaceuticals, Inc., priority 1997, dated 2003).

The target of one experiment is T1, Lyn SH3 domain (Homo sapiens, UniProt P07948).
T1 construct: Lyn SH3-GST fusion proteins were generated as previously described; made in house
The experiment in a line: Inhibition of Lyn SH3-GST fusion protein binding to immobilized p85 proline-rich peptide, surface plasmon resonance (BIAcore). The following applies: Lyn SH3-GST fusion protein (1 μM) incubated with 0.01-100 μM spirolactam or non-biotinylated canonical peptide prior to injection; 25° C.; concentration behind the values not stated. The protocol:
The ability of spirolactams to bind to SH3 domains was assessed by measuring their ability to inhibit the binding of cononical proline-rich peptide to purified Lyn SH3 domain. This inhibition was measured by surface plasmon resonance.
Lyn SH3-GST fusion proteins were generated as previously described (Pleiman, et al., Mol & Cellular Biol. 13(9):5877 (1993)), purified from bacterial lysates by glutathione affinity chromatography and eluted by competition. Aggregates were removed by size exclusion chromatography on Sephadex 75 (Pharmacia Biotech, Uppsala, Sweden).
Surface plasmon resonance measurements were performed on a BIAcore 2000 biosensor (BIAcore AB, Uppsala, Sweden). A synthetic canonical proline-rich peptide derived from phosphatidylinositol 3 kinase p85 (Pleiman, et al., (1994) Science 263:1609 (1994)); GGGKPRPPRPLPVAPGSS (SEQ ID NO:5) was immobilized on a prepared streptavidin coated sensor chip (Sensor Chip SA, BIAcore AB) via an N-terminal biotin moiety at a density of 0.05 pmol/mm^2. […] Dissociation was monitored during subsequent washing of the chip with running buffer for an additional 5.0 minutes. […]
To test their activity, 0.01-100 μM spirolactam or non-biotinylated canonical peptide was incubated with the fusion protein prior to injection. Data were recorded in real-time as sensorgrams and analyzed subsequently using BIA evaluation 2.0 software (BIAcore AB).
(In general: SPR reads the build-up and loss of mass on a sensor chip optically.)

Experiment [1] has as its target Lyn SH3-GST fusion protein. As to the kind of experiment: SPR competition, compound (0.01-100 uM) incubated with Lyn SH3-GST before injection over immobilized biotinylated p85 peptide.

T1 sequence (P07948 63-123 limits assumed): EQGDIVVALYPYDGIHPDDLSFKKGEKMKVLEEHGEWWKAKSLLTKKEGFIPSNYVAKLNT

With “Ac-GGGKPRPPRPLPVAPGSS-OH [Ac-GGGKPRPPRPLPVAP-GSS-OH, non-biotinylated canonical proline-rich peptide derived from phosphatidylinositol 3 kinase p85, reference compound]”, the “Percent Binding (Relative binding affinity to SH3 domain)” value in the experiment with Lyn SH3 domain was 81%.

Ac-GGGKPRPPRPLPVAPGSS-OH [Ac-…-OH]: in experiment [1], the Percent Binding stood at 81%.
